Source: patent US20250135039A1, “INHIBITOR-RESISTANT MGMT MODIFICATIONS AND MODIFICATION OF MGMT-ENCODING NUCLEIC ACIDS” (Ensoma, Inc., priority 2022, published 2025)

B1: G160D: MGMT polypeptide with mutation G160D (protein)
chain: MDKDCEMKRTTLDSPLGKLELSGCEQGLHEIKLLGKGTSAADAVEVPAPAAVLGGPEPLMQCTAWLNAYFHQPEAIEEFPVPALHHPVFQQESFTRQVLWKLLKVVKFGEVISYQQLAALAGNPKAARAVGGAMRGNPVPILIPCHRVVCSSGAVGNYSDGLAVKEWLLAHEGHRLGKPGLGGSSGLAGAWLKGAGATSGSPPAGRN
B2: wild-type MGMT: reference MGMT polypeptide according to SEQ ID NO: 1 (GenBank NP_002403.3); used as control (protein)
chain: MDKDCEMKRTTLDSPLGKLELSGCEQGLHEIKLLGKGTSAADAVEVPAPAAVLGGPEPLMQCTAWLNAYFHQPEAIEEFPVPALHHPVFQQESFTRQVLWKLLKVVKFGEVISYQQLAALAGNPKAARAVGGAMRGNPVPILIPCHRVVCSSGAVGNYSGGLAVKEWLLAHEGHRLGKPGLGGSSGLAGAWLKGAGATSGSPPAGRN
modifications: REGION 1..207: note = Wild Type MGMT
notes: used as control
B3: G160H: MGMT polypeptide with mutation G160H (protein)
chain: MDKDCEMKRTTLDSPLGKLELSGCEQGLHEIKLLGKGTSAADAVEVPAPAAVLGGPEPLMQCTAWLNAYFHQPEAIEEFPVPALHHPVFQQESFTRQVLWKLLKVVKFGEVISYQQLAALAGNPKAARAVGGAMRGNPVPILIPCHRVVCSSGAVGNYSHGLAVKEWLLAHEGHRLGKPGLGGSSGLAGAWLKGAGATSGSPPAGRN
B4: G160P: MGMT polypeptide with mutation G160P (protein)
chain: MDKDCEMKRTTLDSPLGKLELSGCEQGLHEIKLLGKGTSAADAVEVPAPAAVLGGPEPLMQCTAWLNAYFHQPEAIEEFPVPALHHPVFQQESFTRQVLWKLLKVVKFGEVISYQQLAALAGNPKAARAVGGAMRGNPVPILIPCHRVVCSSGAVGNYSPGLAVKEWLLAHEGHRLGKPGLGGSSGLAGAWLKGAGATSGSPPAGRN
B5: A170S: MGMT polypeptide with mutation A170S (protein)
chain: MDKDCEMKRTTLDSPLGKLELSGCEQGLHEIKLLGKGTSAADAVEVPAPAAVLGGPEPLMQCTAWLNAYFHQPEAIEEFPVPALHHPVFQQESFTRQVLWKLLKVVKFGEVISYQQLAALAGNPKAARAVGGAMRGNPVPILIPCHRVVCSSGAVGNYSGGLAVKEWLLSHEGHRLGKPGLGGSSGLAGAWLKGAGATSGSPPAGRN
B6: G160E: MGMT polypeptide with mutation G160E (protein)
chain: MDKDCEMKRTTLDSPLGKLELSGCEQGLHEIKLLGKGTSAADAVEVPAPAAVLGGPEPLMQCTAWLNAYFHQPEAIEEFPVPALHHPVFQQESFTRQVLWKLLKVVKFGEVISYQQLAALAGNPKAARAVGGAMRGNPVPILIPCHRVVCSSGAVGNYSEGLAVKEWLLAHEGHRLGKPGLGGSSGLAGAWLKGAGATSGSPPAGRN

System: U251 human glioblastoma cell line
Assay: in vitro FM-HCR assay of MGMT activity (mPlum O^6MeG reporter plasmid)
Format: cell-based
Conditions: for Reporter expression (%) mean, O^6BG: 100 μM O^6BG; for Reporter expression (%) mean, O^6BG / Reporter expression (%) mean, DMSO: U251 cells, flow cytometry 24 h after transfection, damaged/undamaged reporter, inversely related to MGMT activity; for Reporter expression (%) mean, DMSO: 0.1% DMSO; for MGMT activity (a.u.) DMSO / MGMT activity (% of WT) DMSO: DMSO condition; for MGMT activity (a.u.) DMSO / MGMT activity (a.u.) O^6BG: determined from percent reporter expression; for MGMT activity (% of WT) DMSO / MGMT activity (% of WT) O^6BG: relative to wild-type MGMT in same condition; for Relative MGMT activity (%): MGMT activity (a.u.) in O^6BG divided by DMSO x 100, higher values indicate resistance; for MGMT activity (a.u.) O^6BG / MGMT activity (% of WT) O^6BG: O^6BG condition; for Ratio percent reporter expression (O^6BG/DMSO): lower values indicate resistance to O^6BG; for O^6BG resistance relative to WT (%): percentage difference in relative MGMT activity between variant and wild-type MGMT
Summary of the method: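 U251 cells transfected with MGMT variant plasmid, mPlum O^6MeG reporter (or undamaged mPlum plasmid) and BFP control, in 100 μM O^6BG or 0.1% DMSO; flow cytometry at 24 h. mPlum count×intensity normalized to BFP; percent reporter expression = damaged/undamaged ×100, inversely related to MGMT activity.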

Molecule	Reporter expression (%) mean, O^6BG	Reporter expression (%) mean, DMSO	MGMT activity (a.u.) DMSO	MGMT activity (% of WT) DMSO	Relative MGMT activity (%)	MGMT activity (a.u.) O^6BG	MGMT activity (% of WT) O^6BG	Ratio percent reporter expression (O^6BG/DMSO)	O^6BG resistance relative to WT (%)
B1	72.8%	23.0%	4.35 a.u.	80.4 % of WT	31.6%	1.37 a.u.	96.2 % of WT	3.16	19.6%
B2	70.0%	18.5%	5.41 a.u.	100.0 % of WT	26.4%	1.43 a.u.	100.0 % of WT	3.78	0.0%
B3	21.3%	10.3%	9.68 a.u.	179.0 % of WT	48.4%	4.69 a.u.	328.1 % of WT	2.06	83.3%
B4	47.5%	22.8%	4.40 a.u.	81.3 % of WT	47.9%	2.11 a.u.	147.4 % of WT	2.09	81.2%
B5	85.0%	15.8%	6.35 a.u.	117.5 % of WT	18.5%	1.18 a.u.	82.4 % of WT	5.40	−29.9%
B6	63.3%	15.3%	6.56 a.u.	121.3 % of WT	24.1%	1.58 a.u.	110.7 % of WT	4.15	−8.8%
